# Measurements as given in paper PMC5789003, “Structural and functional characterization of shaft, anchor, and tip proteins of the Mfa1 fimbria from the periodontal pathogen Porphyromonas gingivalis” (Scientific Reports, 2018).
# Where “and” joins values, the source holds several entries; their conditions need not be identical. Identical values can stand only once.
# Molecular target: the molecule itself
# Experiment: SDS-PAGE and immunoblot of partially heat-denatured fimbriae (ladder-like pattern)
row,Protein,stoichiometry N
1,"Mfa2 (anchor protein of the Mfa1 fimbria), wild type, in P. gingivalis (natural protein, lipidated cysteine (Cys29); disulphide bonds Cys54-Cys285 and Cys298-Cys300) CDKMIYDNYDDCPRGVYVNFYSQTECAENPSYPAEVARLNVYAFDKDGILRSANVFEDVQLSAAKEWLIPLEKDGLYTIFAWGNIDDHYNIGEIKIGETTKQQVLMRLKQDGKWATNIDGTTLWYATSPVVELKNMEDGADQYIHTRANLREYTNRVTVSVDSLPHPENYEIKLASSNGSYRFDGTVAKADSTYYPGETKVVGDSTCRAFFTTLKLESGHENTLSVTHKPTGREIFRTDLVGAILSSQYAQNINLRCINDFDIRLVAHHCNCPDDTYVVVQIWINGWLIHSYEIEL",2 and 3
2,"Mfa2 C54A (natural protein, source: P. gingivalis Δmfa2Δfim complemented with mfa2C54A, whole cell lysate) CDKMIYDNYDDCPRGVYVNFYSQTEAAENPSYPAEVARLNVYAFDKDGILRSANVFEDVQLSAAKEWLIPLEKDGLYTIFAWGNIDDHYNIGEIKIGETTKQQVLMRLKQDGKWATNIDGTTLWYATSPVVELKNMEDGADQYIHTRANLREYTNRVTVSVDSLPHPENYEIKLASSNGSYRFDGTVAKADSTYYPGETKVVGDSTCRAFFTTLKLESGHENTLSVTHKPTGREIFRTDLVGAILSSQYAQNINLRCINDFDIRLVAHHCNCPDDTYVVVQIWINGWLIHSYEIEL",2 and 3
3,"Mfa2 C285A (natural protein, source: P. gingivalis Δmfa2Δfim complemented with mfa2C285A, whole cell lysate) CDKMIYDNYDDCPRGVYVNFYSQTECAENPSYPAEVARLNVYAFDKDGILRSANVFEDVQLSAAKEWLIPLEKDGLYTIFAWGNIDDHYNIGEIKIGETTKQQVLMRLKQDGKWATNIDGTTLWYATSPVVELKNMEDGADQYIHTRANLREYTNRVTVSVDSLPHPENYEIKLASSNGSYRFDGTVAKADSTYYPGETKVVGDSTCRAFFTTLKLESGHENTLSVTHKPTGREIFRTDLVGAILSSQYAQNINLRAINDFDIRLVAHHCNCPDDTYVVVQIWINGWLIHSYEIEL",3 and 2
